Assay results: the supplement of paper PMC7877785
± gives the uncertainty stated by the source.

Assay: self-splicing fitness, log relative to wild type (ln ratio); higher = more splicing; Tetrahymena group I intron in knt gene, E. coli kanamycin selection, DiMSum; sequences stand for … in CUCUCU…GGAGGGAAAAGUUAUCAGGCAUGCACCUGGUAGCUAGUCUUUAAACCAAUAGAUUGCAUCGGUUUAAAAGGCAAGACCGUCAAAUUGCGGGAAAGGGGUCAACAGCCGUUCAGUACCAAGUCUCAGGGGAAACUUUGAGAUGGCCUUGCAAAGGGUAUGGUAAUAAGCUGACGGACAUGGUCCUAACCACGCAGCCAAGUCCUAAGUCAACAGAUCUUCUGUUGAUAUGGAUGCAGUUCACAGACUAAAUGUCGGUCGGGGAAGAUGUAUUCUUCUCAUAAGAUAUAGUCGGACCUCUCCUUAAUGGGAGCUAGCGGAUGAAGUGAUGCAACACUGGAGCCGCUGGGAACUAAUUUGUAUGCGAAAGUAUAUUGAUUAGUUUUGGAGUACUCGUGGUCG
Procedure, shortened: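 Colonies from six replicate transformations of E. coli BL21(DE3) were pooled and amplicon-sequenced on an Illumina HiSeq 2500. The library placed an intron with all eight P1ex-region nucleotides randomised inside the knt kanamycin-resistance gene on pET-22b(+), and cells grew overnight at 37°C or 30°C on LB agar with or without 25 μg/mL kanamycin (plus 100 μg/mL carbenicillin, 50 μM IPTG, 0.2% rhamnose). Fitness is the DiMSum error-weighted combination of wild-type-normalised replicate fold changes, kanamycin versus none.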

| Sequence | self-splicing fitness (ln) (30 °C) | self-splicing fitness (ln) (37 °C) |
| --- | --- | --- |
| CCGGAGCAAUAUUACGAAAC | -1.5 ± 0.23 | -0.933 ± 0.2 |
| CCGGAGCAAUAUUACGAAGG | -2.63 ± 0.14 | -2.28 ± 0.22 |
| CCGGAGCAAUAUUACGAGCG | -0.715 ± 0.082 | 0.256 ± 0.12 |
| CCGGAGCAAUAUUACGAGGA | – | -1.96 ± 0.24 |
| CCGGAGCAAUAUUACGAGGU | -3.56 ± 0.46 | -2.6 ± 0.31 |
| CCGGAGCAAUAUUACGAUCC | -2.16 ± 0.49 | – |
| CCGGAGCAAUAUUACGCCCG | -1.86 ± 0.41 | – |
| CCGGAGCAAUAUUACGCGUA | -3.18 ± 0.3 | -1.59 ± 0.2 |
| CCGGAGCAAUAUUACGGCGA | -3.92 ± 0.33 | -2.42 ± 0.48 |
| CCGGAGCAAUAUUACGUCGG | -3.63 ± 0.21 | -2.82 ± 0.3 |
| CCGGAGCAAUAUUACGUGGC | -3.77 ± 0.39 | – |
| CCGGAGCAAUAUUACGUUAU | -2.97 ± 0.31 | -2.01 ± 0.23 |
| CCGUAGCAAUAUUACGACAA | -3.54 ± 0.27 | -3.19 ± 0.33 |
| CCGUAGCAAUAUUACGAGGG | -3.25 ± 0.18 | -0.352 ± 0.17 |
| CCGUAGCAAUAUUACGAUCG | 0.0338 ± 0.098 | 0.353 ± 0.12 |
| CCGUAGCAAUAUUACGAUGA | -1.48 ± 0.11 | -1.13 ± 0.12 |
| CCGUAGCAAUAUUACGCAUA | -2.31 ± 0.19 | -2.12 ± 0.33 |
| CCGUAGCAAUAUUACGCCGG | -2.94 ± 0.49 | – |
| CCGUAGCAAUAUUACGCCGU | -3 ± 0.44 | -2.16 ± 0.27 |
| CCGUAGCAAUAUUACGCCUC | -1.88 ± 0.44 | -1.82 ± 0.35 |
| CCGUAGCAAUAUUACGCGAU | -2.48 ± 0.22 | -3.66 ± 0.35 |
| CCGUAGCAAUAUUACGCGCG | -2.15 ± 0.17 | -0.999 ± 0.18 |
| CCGUAGCAAUAUUACGCGGA | -2.85 ± 0.26 | -3.13 ± 0.26 |
| CCGUAGCAAUAUUACGCGUA | -3.69 ± 0.3 | -2.06 ± 0.31 |
| CCGUAGCAAUAUUACGGACG | -1.88 ± 0.26 | – |

| Sequence | self-splicing fitness (ln) (30 °C) | self-splicing fitness (ln) (37 °C) |
| --- | --- | --- |
| CCGUAGCAAUAUUACGGAGA | -3.01 ± 0.28 | -2.32 ± 0.38 |
| CCGUAGCAAUAUUACGGCUG | -2.46 ± 0.21 | -1.19 ± 0.17 |
| CCGUAGCAAUAUUACGUCUC | -3.43 ± 0.21 | -3.67 ± 0.31 |
| CCGUAGCAAUAUUACGUUCU | -3.34 ± 0.28 | -3.36 ± 0.42 |
| CCUAAGCAAUAUUACGACCA | -3.19 ± 0.21 | -1.46 ± 0.17 |
| CCUAAGCAAUAUUACGACUG | -1.74 ± 0.15 | -0.483 ± 0.14 |
| CCUAAGCAAUAUUACGACUU | -4.37 ± 0.17 | -2.4 ± 0.13 |
| CCUAAGCAAUAUUACGAGUA | -2.5 ± 0.16 | -1.98 ± 0.18 |
| CCUAAGCAAUAUUACGAUGC | -3.49 ± 0.17 | -1.88 ± 0.16 |
| CCUAAGCAAUAUUACGCAAG | -4.71 ± 0.46 | – |
| CCUAAGCAAUAUUACGCACG | -3.1 ± 0.41 | -1.46 ± 0.23 |
| CCUAAGCAAUAUUACGCAGG | -4.8 ± 0.29 | -2.37 ± 0.25 |
| CCUAAGCAAUAUUACGCCAC | -2.75 ± 0.22 | – |
| CCUAAGCAAUAUUACGCGGG | -3.96 ± 0.21 | -2.68 ± 0.21 |
| CCUAAGCAAUAUUACGCUGG | -4.1 ± 0.32 | -2.48 ± 0.25 |
| CCUAAGCAAUAUUACGGAAG | -2.12 ± 0.11 | -0.751 ± 0.1 |
| CCUAAGCAAUAUUACGGAGU | -3 ± 0.17 | -2.55 ± 0.17 |
| CCUAAGCAAUAUUACGGGCG | -2.15 ± 0.11 | -0.76 ± 0.1 |
| CCUAAGCAAUAUUACGGUAU | -3.72 ± 0.23 | -1.85 ± 0.24 |
| CCUAAGCAAUAUUACGUAAA | -3.49 ± 0.24 | -2.43 ± 0.16 |
| CCUAAGCAAUAUUACGUGGU | -4.74 ± 0.32 | -3.13 ± 0.25 |
| CCUAAGCAAUAUUACGUUCU | -2.57 ± 0.16 | -3.16 ± 0.34 |
| CCUAAGCAAUAUUACGUUUG | -4.59 ± 0.18 | -3.16 ± 0.16 |
| CCUAAGCAAUAUUACGUUUU | -3.89 ± 0.18 | -1.3 ± 0.13 |
| CCUCAGCAAUAUUACGAACA | -4.3 ± 0.42 | -1.46 ± 0.41 |
